T1: FcγRIIb (human, UniProt P31994 43-217, limits assumed)
T1 construct: Construct not described; also called hCD32b/FcγRIIb
T1 sequence (looked up): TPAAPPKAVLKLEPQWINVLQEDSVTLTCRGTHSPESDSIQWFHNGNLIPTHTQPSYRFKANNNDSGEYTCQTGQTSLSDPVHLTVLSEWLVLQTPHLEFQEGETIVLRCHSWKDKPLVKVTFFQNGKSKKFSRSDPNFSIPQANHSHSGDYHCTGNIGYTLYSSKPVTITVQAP

T2: FcγRIIa-H131 (human, UniProt P12318 34-218, limits assumed)
T2 construct: Construct not described; also called hCD32a/FcγRIIa-H131
T2 sequence (looked up): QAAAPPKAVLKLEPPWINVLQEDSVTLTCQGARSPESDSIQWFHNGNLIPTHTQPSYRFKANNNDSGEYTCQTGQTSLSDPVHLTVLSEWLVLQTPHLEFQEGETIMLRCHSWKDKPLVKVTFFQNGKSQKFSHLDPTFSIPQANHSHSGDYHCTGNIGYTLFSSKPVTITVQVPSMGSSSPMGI

T3: FcγRIIa-R131 (human, UniProt P12318 34-218, limits assumed)
T3 construct: Construct not described
T3 sequence (looked up): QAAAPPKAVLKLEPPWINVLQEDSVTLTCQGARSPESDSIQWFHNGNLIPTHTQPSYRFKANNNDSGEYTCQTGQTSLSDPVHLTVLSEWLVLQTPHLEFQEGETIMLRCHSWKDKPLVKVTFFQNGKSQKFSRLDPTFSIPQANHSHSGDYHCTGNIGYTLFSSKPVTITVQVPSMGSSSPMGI


Columns and labels:
FcγRIIb = target: T1, FcγRIIb; assay: BLI (ForteBio Octet), %Rmax at 1 µM hCD32b/FcγRIIb
Protocol: (§1) See Example 8. Antibody names including “-sup” represent supernatants from antibody producing cells, whereas others are purified antibodies. Data are presented as percentages of a maximum receptor binding value for each combination of antibody and receptor, as measured in a ForteBio Octet system. See, e.g., Example 3. Each cluster of three bars represents, from left to right, binding to hCD32a/FcγRIIa-H131 (10 μM) (hatched bars), […] (10 μM) (black bars), and hCD32b/FcγRIIb (1 μM) (white bars).
(§2) Supernatants were obtained from cells expressing these antibodies and assayed for binding to hCD32/FcγRII. Selected purified antibodies without mutations at position 270 were used as controls.

FcγRIIa-H131 = target: T2, FcγRIIa-H131; assay: BLI (ForteBio Octet), %Rmax at 10 µM hCD32a/FcγRIIa-H131
Protocol: as §1, §2

FcγRIIa-R131 = target: T3, FcγRIIa-R131; assay: BLI (ForteBio Octet), %Rmax at 10 µM FcγRIIa-R131 (CD32a-R131 on the sheet)
Protocol: as §1, §2

binding result (FcγRIIb) | binding result (FcγRIIa-H131) | binding result (FcγRIIa-R131) | Binder
binds | binds | binds | 5F11-45 V9 (antibody, human IgG1, kappa) heavy: QVQLVQSGAEVKKPGSSVKVSCKASGYTFTDLSMHWVRQAPGQGLEWMGYITPSSGYTAYNQKFKGKTTLTADKSTSTAYMELSSLRSEDTAVYYCARLILQRGAYWGQGTLVTVSSASTKGPSVFPLAPSSKSTSGGTAALGCLVKDYFPEPVTVSWNSGALTSGVHTFPAVLQSSGLYSLSSVVTVPSSSLGTQTYICNVNHKPSNTKVDKRVEPKSCDKTHTCPPCPAPELLGDDSVFLFPPKPKDTLMISRTPEVTCVVVDVSHEDGEVKFNWYVDGVEVHNAKTKPREEQYNSTYRVVSVLTVLHQDWLNGKEYKCKVSNKALPRPIEKTISKAKGQPREPQVYTLPPSREEMTKNQVSLTCLVKGFYPSDIAVEWESNGQPENNYKTTPPVLDSDGSFFLYSKLTVDKSRWQQGNVFSCSVMHEALHNHYTQKSLSLSPG light: DIVLTQSPDSLAVSLGERATINCRASKNVDSYGNSFMHWYQQKPGQPPKLLIYRASNLESGVPDRFSGSGSGTDFTLTISSLQAEDVAVYYCQQSNEDPLTFGQGTKLEIKRTVAAPSVFIFPPSDEQLKSGTASVVCLLNNFYPREAKVQWKVDNALQSGNSQESVTEQDSKDSTYSLSSTLTLSKADYEKHKVYACEVTHQGLSSPVTKSFNRGEC
binds | binds | binds | 5F11-45 V4 (antibody, human IgG1, kappa) heavy: not shown light: DIVLTQSPDSLAVSLGERATINCRASKNVDSYGNSFMHWYQQKPGQPPKLLIYRASNLESGVPDRFSGSGSGTDFTLTISSLQAEDVAVYYCQQSNEDPLTFGQGTKLEIKRTVAAPSVFIFPPSDEQLKSGTASVVCLLNNFYPREAKVQWKVDNALQSGNSQESVTEQDSKDSTYSLSSTLTLSKADYEKHKVYACEVTHQGLSSPVTKSFNRGEC
binds | binds | binds | 5F11-45-V9-DA-sup (antibody, human IgG1, kappa, Tested as supernatant of antibody-producing cells; also called 5F11-45 V9 D270A) heavy chain: QVQLVQSGAEVKKPGSSVKVSCKASGYTFTDLSMHWVRQAPGQGLEWMGYITPSSGYTAYNQKFKGKTTLTADKSTSTAYMELSSLRSEDTAVYYCARLILQRGAYWGQGTLVTVSSASTKGPSVFPLAPSSKSTSGGTAALGCLVKDYFPEPVTVSWNSGALTSGVHTFPAVLQSSGLYSLSSVVTVPSSSLGTQTYICNVNHKPSNTKVDKRVEPKSCDKTHTCPPCPAPELLGDDSVFLFPPKPKDTLMISRTPEVTCVVVDVSHEAGEVKFNWYVDGVEVHNAKTKPREEQYNSTYRVVSVLTVLHQDWLNGKEYKCKVSNKALPRPIEKTISKAKGQPREPQVYTLPPSREEMTKNQVSLTCLVKGFYPSDIAVEWESNGQPENNYKTTPPVLDSDGSFFLYSKLTVDKSRWQQGNVFSCSVMHEALHNHYTQKSLSLSPG light chain: DIVLTQSPDSLAVSLGERATINCRASKNVDSYGNSFMHWYQQKPGQPPKLLIYRASNLESGVPDRFSGSGSGTDFTLTISSLQAEDVAVYYCQQSNEDPLTFGQGTKLEIKRTVAAPSVFIFPPSDEQLKSGTASVVCLLNNFYPREAKVQWKVDNALQSGNSQESVTEQDSKDSTYSLSSTLTLSKADYEKHKVYACEVTHQGLSSPVTKSFNRGEC
binds | binds | binds | 5F11-45-V9-DQ-sup (antibody, human IgG1, kappa, Tested as supernatant of antibody-producing cells; also called 5F11-45 V9 D270Q) heavy chain: QVQLVQSGAEVKKPGSSVKVSCKASGYTFTDLSMHWVRQAPGQGLEWMGYITPSSGYTAYNQKFKGKTTLTADKSTSTAYMELSSLRSEDTAVYYCARLILQRGAYWGQGTLVTVSSASTKGPSVFPLAPSSKSTSGGTAALGCLVKDYFPEPVTVSWNSGALTSGVHTFPAVLQSSGLYSLSSVVTVPSSSLGTQTYICNVNHKPSNTKVDKRVEPKSCDKTHTCPPCPAPELLGDDSVFLFPPKPKDTLMISRTPEVTCVVVDVSHEQGEVKFNWYVDGVEVHNAKTKPREEQYNSTYRVVSVLTVLHQDWLNGKEYKCKVSNKALPRPIEKTISKAKGQPREPQVYTLPPSREEMTKNQVSLTCLVKGFYPSDIAVEWESNGQPENNYKTTPPVLDSDGSFFLYSKLTVDKSRWQQGNVFSCSVMHEALHNHYTQKSLSLSPG light chain: DIVLTQSPDSLAVSLGERATINCRASKNVDSYGNSFMHWYQQKPGQPPKLLIYRASNLESGVPDRFSGSGSGTDFTLTISSLQAEDVAVYYCQQSNEDPLTFGQGTKLEIKRTVAAPSVFIFPPSDEQLKSGTASVVCLLNNFYPREAKVQWKVDNALQSGNSQESVTEQDSKDSTYSLSSTLTLSKADYEKHKVYACEVTHQGLSSPVTKSFNRGEC
binds | binds | binds | 5F11-45 V9 D270E (antibody, human IgG1, kappa) heavy: QVQLVQSGAEVKKPGSSVKVSCKASGYTFTDLSMHWVRQAPGQGLEWMGYITPSSGYTAYNQKFKGKTTLTADKSTSTAYMELSSLRSEDTAVYYCARLILQRGAYWGQGTLVTVSSASTKGPSVFPLAPSSKSTSGGTAALGCLVKDYFPEPVTVSWNSGALTSGVHTFPAVLQSSGLYSLSSVVTVPSSSLGTQTYICNVNHKPSNTKVDKRVEPKSCDKTHTCPPCPAPELLGDDSVFLFPPKPKDTLMISRTPEVTCVVVDVSHEEGEVKFNWYVDGVEVHNAKTKPREEQYNSTYRVVSVLTVLHQDWLNGKEYKCKVSNKALPRPIEKTISKAKGQPREPQVYTLPPSREEMTKNQVSLTCLVKGFYPSDIAVEWESNGQPENNYKTTPPVLDSDGSFFLYSKLTVDKSRWQQGNVFSCSVMHEALHNHYTQKSLSLSPG light: DIVLTQSPDSLAVSLGERATINCRASKNVDSYGNSFMHWYQQKPGQPPKLLIYRASNLESGVPDRFSGSGSGTDFTLTISSLQAEDVAVYYCQQSNEDPLTFGQGTKLEIKRTVAAPSVFIFPPSDEQLKSGTASVVCLLNNFYPREAKVQWKVDNALQSGNSQESVTEQDSKDSTYSLSSTLTLSKADYEKHKVYACEVTHQGLSSPVTKSFNRGEC
binds | binds | binds | 12D6-24-V9-DQ-sup (antibody, Tested as supernatant of antibody-producing cells; also called 12D6-24 V9 D270Q; copies: 2 + 2) heavy: QVQLVQSGAEVKKPGASVKVSCKASGYTFTGYNMNWVRQAPGQGLEWMGNIDPYYGNTNYNQKFKGRVTMTTDTSTSTAYMELRSLRSDDTAVYYCARLGLQLYALDYWGQGTTVTVSSASTKGPSVFPLAPSSKSTSGGTAALGCLVKDYFPEPVTVSWNSGALTSGVHTFPAVLQSSGLYSLSSVVTVPSSSLGTQTYICNVNHKPSNTKVDKRVEPKSCDKTHTCPPCPAPELLGDDSVFLFPPKPKDTLMISRTPEVTCVVVDVSHEQGEVKFNWYVDGVEVHNAKTKPREEQYNSTYRVVSVLTVLHQDWLNGKEYKCKVSNKALPRPIEKTISKAKGQPREPQVYTLPPSREEMTKNQVSLTCLVKGFYPSDIAVEWESNGQPENNYKTTPPVLDSDGSFFLYSKLTVDKSRWQQGNVFSCSVMHEALHNHYTQKSLSLSPG light: DIVMTQTPLSLPVTPGEPASISCRSSQSLVHSNANTYLHWYLQKPGQSPQLLIYKLTNRFFGVPDRFSGSGSGTDFTLKISRVEAEDVGVYYCSQSIHVPWTFGGGTKVEIKRTVAAPSVFIFPPSDEQLKSGTASVVCLLNNFYPREAKVQWKVDNALQSGNSQESVTEQDSKDSTYSLSSTLTLSKADYEKHKVYACEVTHQGLSSPVTKSFNRGEC
binds | binds | binds | 12D6-24-V9-DS-sup (antibody, Tested as supernatant of antibody-producing cells; also called 12D6-24 V9 D270S; copies: 2 + 2) heavy: QVQLVQSGAEVKKPGASVKVSCKASGYTFTGYNMNWVRQAPGQGLEWMGNIDPYYGNTNYNQKFKGRVTMTTDTSTSTAYMELRSLRSDDTAVYYCARLGLQLYALDYWGQGTTVTVSSASTKGPSVFPLAPSSKSTSGGTAALGCLVKDYFPEPVTVSWNSGALTSGVHTFPAVLQSSGLYSLSSVVTVPSSSLGTQTYICNVNHKPSNTKVDKRVEPKSCDKTHTCPPCPAPELLGDDSVFLFPPKPKDTLMISRTPEVTCVVVDVSHESGEVKFNWYVDGVEVHNAKTKPREEQYNSTYRVVSVLTVLHQDWLNGKEYKCKVSNKALPRPIEKTISKAKGQPREPQVYTLPPSREEMTKNQVSLTCLVKGFYPSDIAVEWESNGQPENNYKTTPPVLDSDGSFFLYSKLTVDKSRWQQGNVFSCSVMHEALHNHYTQKSLSLSPG light: DIVMTQTPLSLPVTPGEPASISCRSSQSLVHSNANTYLHWYLQKPGQSPQLLIYKLTNRFFGVPDRFSGSGSGTDFTLKISRVEAEDVGVYYCSQSIHVPWTFGGGTKVEIKRTVAAPSVFIFPPSDEQLKSGTASVVCLLNNFYPREAKVQWKVDNALQSGNSQESVTEQDSKDSTYSLSSTLTLSKADYEKHKVYACEVTHQGLSSPVTKSFNRGEC

Source: US20180142030A1 (Bristol-Myers Squibb, published 2018)
